From the RNAGym collection of RNA variant scans (doi:10.1073/pnas.2313332121) come the findings set out here.

This sample holds only a part of the variants without activity.

First the molecules themselves.
B1: TPR 5TU (parent)
chain: GGAUCUUCUCGAUCUAACAAAAAAGACAAAUCUGCCACAAAGCUUGAGAGCAUCUUCGGAUGCAGAGGCGGCAGCCUUCGGUGGCGCGAUAGCGCCAACGUUCUCAACUAUGACACGCAAAACGCGUGCUCCGUUGAAUGGAGUUUAUCAUG

Variants of B1 are the subject of this data set. The data set can be described thus: polymerase ribozyme fitness, log enrichment relative to wild type (log ratio); higher = more active; in vitro selection for triplet polymerase activity. In a few lines: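 For each subunit of a heterodimeric triplet polymerase ribozyme, a mutant library was built by PCR and transcribed, then taken through a single in vitro selection round in triplicate. Selection involved annealing to a biotinylated primer, the partner subunit and triplets, incubation frozen at −7 °C, gel excision of extended constructs, capture on streptavidin beads and RT-PCR. Genotypes were retained after Illumina sequencing of inputs and outputs only with ≥10 input reads and ≥1 read in each output. Fitness is defined as the logarithm of a genotype's enrichment relative to wild-type enrichment, using inverse-variance-weighted averages across replicates, with the logarithm taken to base 2.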
As for GGAUCUACUCGAUCUAACAUAAAAGACAAAGCUGCCACAAAGCUUGAGAGCAUCUUCGGAUGCAGAGGCGGCAGCCUUCGGUGGCGCGAUAGCGCCAACGUUCUCAACUAUGACAUGCAAAACGCGUGCUCCGUUGAAUGGAGUUUAUCAUG [U7A A20U U31G C116U], the “polymerase ribozyme fitness (log ratio)” value was -3.58.

On to GGAUCUUCUCGAUCUAACAAAAAAGACAAAUCUGCCACAAAGCUUGAGAGCAUCUUCGGAUGCGGAGGGGGCAGACUUCGGUGGAGCGUUAGAGCCAACGUUCGCAACUAUGACACGCAAAACGCGUGCUCCGUUGAAUGGAGUUUAUCAUG [A64G C69G C75A C85A A89U C93A U104G], for which the “polymerase ribozyme fitness (log ratio)” value is no more than -4.2.

Consider GGAUCUUCUCGAUCUAACAAAAAAGACAAAUCUGCCACAACGCUUGAGAGCAUCAUCGGAUGCAGAGGCGGCAGCCUUCGGUGGCGCGAUAGCGCCGACGUUCUCAACUAUGACACGCAAAACGCGUGCUCCGUUGAAUGGAGUUUAUCAUG [A41C U55A A97G], for which the “polymerase ribozyme fitness (log ratio)” value is -0.161.

Consider GGAUCUUCUCGAUCUAACAAAAAAGACAAAUCUGCCACAAAGCUUGAGAGCAUCUUCGGAUGCAGAGGCGGCAGCCUUCGGUGACGCGAUAGCGCGAACGUUCUCAACUAUGACACGCAAAACGCGUGCUCCGUUGAAUGGAGUUUAUCAUG [G84A C96G], for which the “polymerase ribozyme fitness (log ratio)” value was -0.627.

On to GGAUCUUCUCGAUCUAACAAAAAAGACAAAUCUGCCACAAAGCUUGAGAGCAUCUUCGGAUGCAGAGGCGGCAGCCUUCGGUGGCGCGAUAGCGCCAACGUGCCCAACUAUGACACGCAAAACGCGUGCUCCGUUGAAUGGAGUUUAACUUG [U102G U104C U148A A150U], for which the “polymerase ribozyme fitness (log ratio)” value is no more than -4.2.

With GGAUAUUCUCGAUCUAACAAAAAAGACAAAUCUGCCACAAAGCUUGAGAGCAUCUUUGGAUGCAGAGGCGGCAGCCUUCGGUGGUGCGAUAGCGCCAACGUUCUCAACUAUGACACGCAAAACGCGUGCUCCGUUGAAUGGAGUUUAUCAUG [C5A C57U C85U], the “polymerase ribozyme fitness (log ratio)” value was 0.39.

As to GGAUCUUCUCGAGCUAACAAAAAAGACAAAUCUGCCACAAAGCUUGAGAGCAUCUUCGGAUGCAGAGGCGGCAGCCUUCGGUGGUGCGAUAGCGCCAACGUUCUCAACUAUGACACGCAAAACGCGUGCUCCGUUGAAUGGAGUUUAUCAUG [U13G C85U], the “polymerase ribozyme fitness (log ratio)” value was -1.63.

As for GGAUCUUUUCGAUCUAACAAAAAAGACAAAUCUGCCACAAAGCUUGAGAGCAUCUUCGGAUGCAGAGGCGGCAGCCUUCGCUGGCGCGAUAGCGCCAACGUUCUCAACUAUGACACGCAAAACGCGUGCUCCGUUGAAUGGAGUUUAUCAUG [C8U G81C], the “polymerase ribozyme fitness (log ratio)” value was -3.94.

For the variant GGAUCUUCUCGAUCUAACAAAAAAGACAAAUCUGCCACAAAGCUUGAGAGCCUCUUCGGAUGCAGAGGCGGCAGCCUUCGGUCGCGUGAUAGCGCCAACGUUCUCAACUAUGACACGCAAAGCGCGUGCUCCGUUGAAUGGAGUUUAUCAUG [A52C G83C C87U A122G], the “polymerase ribozyme fitness (log ratio)” value was no more than -4.2.

Turning to GGAUCUUCUCGAUCUAACAAAAAAGACAAAUCUGCCACAAAGCUUGAGAGCAUCUUCGGAUGCAGCGGCGACGGCCUUCGGUCGCGCGAUAGCGCCAACGUUCUCAACUAUGACACGCAAAACGCGUGCUCCGUUGAAUGGAGUUUAUCAAG [A66C G71A A73G G83C U151A], the “polymerase ribozyme fitness (log ratio)” value is no more than -4.2.

Regarding GGAUCUUCUCGAUCUAACAAAAAAGACAAAUAUGCCACUAAGCUUGAGAGCAUCUUCAGAUGCAGAGGCGGUAGCCUUCUGUAGCGCGAUAGCGCCAACGUUCUCAACUAUGACACGCAAAACGCGUGCUCCGUUGAAUGGAGUUUAUCAUG [C32A A39U G58A C72U G80U G83A], the “polymerase ribozyme fitness (log ratio)” value is no more than -4.2.

In the case of GGAUCUUCUCGAUCUAACAAAAAAGACAAUUCUGCCACAAAGCUUGAGGGCGUCUUCCGAUGCAGAGGCGGCAGCCUACGGUGGCGCGAUAGCGCCAACGUUCUCAACUUUGACACGCAAAAUGCGUGCUCCGUUGAAUGGCGUUUAUCAUG [A30U A49G A52G G58C U78A A110U C123U A142C], the “polymerase ribozyme fitness (log ratio)” value is no more than -4.2.

GGAUCUUCUCGAUCUAACAAAAAAGACAAAUCUGCCACAAAGCUUGAGAGCAUCUUCGGAUGCAGAGGCGGCAGCCUUCGGUGGCGCGCUAGCGCUAACGUUCUCAACUAUGACACGCAAAACGCGUGCUCCGUUGAAUGGAGUUUAUCAUG [A89C C96U]: the “polymerase ribozyme fitness (log ratio)” value was -1.26.

For the variant GGAUCUUCUCGAACUAACAAAAAAGACAAAUCUGCCACAAAGCUUGAGAGCUUCUUCGGAUGCAGAGGCGGCGGCCUUCGGUGGAGCGAUAGCGCCAACGUUCUCAACUAUGACACGCAAAACGCGUGCUCCGGUGAAUGGAGUUUAUCAUG [U13A A52U A73G C85A U134G], the “polymerase ribozyme fitness (log ratio)” value was no more than -4.2.

As to GGAUCUUCUCGAUCUAACAAAAAAGACAAAUCUGCCACAAAGCUUGAGAGCAUCUAUGGAUGCAGAGGCGGCAGCCUUCGGUGGCCCGAUAGCGCCACCGUUCUCAACUAUGACACGCAAAACGCGUGCUCCGUUGAAUGAAGUUUAUCAUA [U56A C57U G86C A98C G141A G152A], the “polymerase ribozyme fitness (log ratio)” value was -3.31.

Turning to GGAUCUUCUCGAUGUAACAAAAAAGACGAAUCUGCCACAAAGCUUGAGAGUUUCUUCGGAUGCAGAGGCGGCAGCCUUCGGUGGCGCAAUAGCGCCAACGUUCUCAACGAUGACACGCAAAACGCGUGCUCCGUUGAAUGGAGUUUAUCAUG [C14G A28G C51U A52U G88A U109G], the “polymerase ribozyme fitness (log ratio)” value was no more than -4.2.

In the case of GGAUCUUCUCGAUCUAACAAAAAAGCCAAAUCUGCCACAAAGCUUGAGAGCAUCUUAGGCUGCAGAGGCGGCAGCCUUCGGUGGCGCAAUAGCGCCAACGUUCUCAACGGUGACACGGAAAACGCGUGCUCCGUUGAAUGGAGUUUAUCAUG [A26C C57A A60C G88A U109G A110G C118G], the “polymerase ribozyme fitness (log ratio)” value is -3.98.

In the case of GGAUCUUCUCGAUCUAACAAAUAAGACAAAUCUGCCACAAAGCUUGAGAGCAUCUUCCGAUGCAGAGGCGGCAGCCUUCGGUGGCGCGAUAUCGCCAACGUUCUCAACUAUGACACGCAAAACCCGUGCUCCGUUGAAUGGAGUUUAUCAUG [A22U G58C G92U G124C], the “polymerase ribozyme fitness (log ratio)” value was -0.925.

As for GGUUCUUCUCGAUCUAACAAAAAAGACAAAUCUGCCACAAAGCUUGAGAGCAUCUUCGGAUGCAGAGGCGGCAGCCUUCGGUAGCGUGAUAGCGCCAACGUUCUCAACUAGGACACGCAAAACGCGUGCUCCGUUGAAUGGAGUUUAUCAUG [A3U G83A C87U U111G], the “polymerase ribozyme fitness (log ratio)” value was no more than -4.2.
